Tests used:
[1] = target: mouse talin1 R1 VBS (H4) peptide; assay: Fluorescence polarisation binding of VD1 to VBS peptide; conditions: fluorescein-labelled talin1 H4 peptide 700 nM, 2-fold serial dilution of protein, 25°C, triplicate, one-site total binding
Description: The mouse talin1 R1 VBS (H4) peptide (C-[…]) was synthesized by GLBiochem (Shanghai) with a non-native, N-terminal cysteine residue. The peptide was coupled with a maleimide-fluorescein dye (Thermo Fisher Scientific) following the manufacturers protocol. Assays were performed in triplicate with a 2-fold serial dilution of protein, with VBS peptide at 700 nM. Fluorescence polarization was measured using a CLARIOstar plate reader (BMGLabTech) at 25°C (excitation: 482 ± 8 nm; emission: 530 ± 20 nm). Data were analyzed using GraphPad Prism 8 software and Kd values were generated using the one-site total binding equation.

[2] = Size exclusion chromatography, oligomeric state; assay type: physicochemical; conditions: 100 μL at 100 μM, Superdex S200 Increase 10/300, PBS pH 7.4 with 5 mM DTT, 280 nm
Description: Samples of 100 μL protein at 100 μM protein concentration were injected onto a Superdex G-200 increase 10/300 (GE Healthcare) at 0.75 mL/min in PBS pH 7.4 (supplemented with 5 mM DTT) using an AKTA Pure (GE Healthcare), monitoring absorbance at 280 nm.

[3] = Circular dichroism thermal denaturation; assay type: physicochemical; conditions: 0.45 mg/mL protein, PBS pH 7.4, 222 nm, 20–90°C
Description: The VD1 domain of mouse vinculin (mVD1) was obtained as a codon-optimized synthetic gene in pET151 (GeneArt). The Q19S point mutation was introduced by site-directed mutagenesis and the sequence was verified.
Proteins were purified by nickel-affinity chromatography, followed by anion exchange chromatography. Briefly, cells were thawed, supplemented with 1 mM PMSF and 0.2% v/v Triton X-100 and lysed by sonication. Cell debris were removed by centrifugation and the supernatant was filtered and loaded onto a 5 mL HisTrap HP column (Cytiva) using an AKTA Start (GE Healthcare). The column was washed with buffer containing 50 mM Tris-HCl pH 8, 600 mM NaCl, 30 mM imidazole, 4 mM MgCl2, 4 mM ATP, 5% v/v glycerol, 0.2% v/v Triton X-100 and bound protein was eluted across a 75 mL linear gradient of 0–300 mM Imidazole. Fractions containing mVD1 were pooled, supplemented with AcTEV protease (Invitrogen) to remove the His-Tag and dialyzed against 20 mM Tris-HCl pH 8, 50 mM NaCl. Protein was loaded onto a 5 mL HiTrap Q (Cytiva), eluted across a 75 mL linear gradient of 50–750 mM NaCl, dialyzed against phosphate buffered saline (PBS) pH 7.4, snap-frozen in liquid nitrogen and stored at -80°C.
Circular dichroism was performed using a JASCO J-715 spectropolarimeter with 0.45 mg/mL protein samples in PBS pH 7.4. […]

[4] = system: talin1 H12 R3; assay: Biosensor analysis (biolayer interferometry, Octet RED384); assay type: binding; conditions: immobilized biotinylated H12 R3, VD1 16 μM to 15.6 nM, 28°C, pH 7.4, association 600 s, dissociation 1200 s, global fit
Description: Solid-phase synthesized talin1 H12 R3 (C-[…]) with free N-terminal cysteine was labelled with maleimide-PEG2-biotin (Thermo Fisher Scientific A39261). Lyophilized peptide was dissolved in PBS pH 7.4 and reduced at 100 μM peptide concentration with 250 μM TCEP in PBS supplemented with 0.25% Triton-X100 for 10 min at RT. Maleimide-PEG2-biotin was added at 5-fold molar excess (500 μM) and incubation continued for 2 hours at RT, mixing at 30 rpm. The reaction was quenched with β-mercaptoethanol added at 5-fold molar excess over maleimide-PEG2-biotin (2.5 mM) for 20 min at RT. Biotin-labelled peptide was purified using a PD10 desalting column (G25 resin, Cytiva Life Sciences) equilibrated with PBS. Elution fractions containing biotinylated peptide were identified using PageBlue-staining (Thermo Fisher Scientific) of glutaraldehyde-fixed (5%, 2 hours) Bolt BisTris Plus 4–12% SDS-PAGE gels (Thermo Fisher Scientific). The concentration of pooled elution fractions was determined using Pierce BCA microplate assay (Thermo Fisher Scientific) measured with Victor Nivo at 562 nm (PerkinElmer). Aliquoted peptide was flash-frozen with liquid nitrogen and stored at -80°C.
The binding and dissociation kinetics of recombinant WT and Q19S vinculin VD1 to talin1 H12 R3 were determined using ForteBio Octet RED384. […]

B1: wild-type VD1: VD1 domain of mouse vinculin; in simulations vinculin head domain 1, residues 1–252 (protein, UniProt Q64727 1-252, looked up, fragment)
chain: MPVFHTRTIESILEPVAQQISHLVIMHEEGEVDGKAIPDLTAPVAAVQAAVSNLVRVGKETVQTTEDQILKRDMPPAFIKVENACTKLVQAAQMLQSDPYSVPARDYLIDGSRGILSGTSDLLLTFDEAEVRKIIRVCKGILEYLTVAEVVETMEDLVTYTKNLGPGMTKMAKMIDERQQELTHQEHRVMLVNSMNTVKELLPVLISAMKIFVTTKNSKNQGIEEALKNRNFTVEKMSAEINEIIRVLQLTS
modifications: VD1 domain
Kd [1]: 350 nM | oligomeric state in solution [2]: monomeric in solution | melting temperature, Tm [3]: 60 °C | binding and dissociation kinetics (KD, kon, koff) [4]: did not reveal significant differences in the binding or dissociation kinetics

Reference: PMC11333002, “Molecular dynamics simulations reveal how vinculin refolds partially unfolded talin rod helices to stabilize them against mechanical force” (PLOS Computational Biology, 2024)
